The assay deals with GST-MdPP2AC (apple (Malus × domestica Borkh.)). The experiment in a line: MST; GST-MdPP2AC labelled with RED-NHS dye, 100 nM, in 0.05% PBS Tween buffer; MdSnRK2.6 titrated (3.81 × 10^−4 to 25 nM as printed); Monolith NT.115.

For one substance, Kd results are on record in paper PMC10243991.

For the substance MdSnRK2.6-His (enzyme), the dissociation constant (Kd) (in general, the constant that tells how readily two partners part at equilibrium) was found to be 109 nM.
